± gives the standard deviation of the averaged measurements.
Tested on: ATP
Assay: switch fluorescence ratio, 500 uM ATP over buffer (Cy3 cluster intensity, sum of 5 cycles each) (fold (ratio)); higher = stronger signal-on switching upon ATP binding; sequences stand for … in TCGTCGGCAGCGTCAGATGTGTATAAGAGACAGTTTTTTTTTTTTTTTTTTTTTTTTT…TC
Settings: aptamer strand: ATP DNA aptamer (quencher-CACCTGGGGGAGTATTGCGGAGGAAGG + anchor), 100 nM annealed; ATP concentration: 500 uM
Method in brief: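 Cy3-labelled switching-strand clusters on a modified Illumina MiSeq flow-cell were annealed to 100 nM quencher-labelled ATP aptamer, imaged in selection buffer, then imaged after 15 min with 500 uM ATP at 22 °C. Five buffer/ATP cycles ran, with NaOH stripping and re-annealing between them. The fluorescence ratio is summed target-cycle over summed buffer-cycle Cy3 intensity per cluster, averaged per switch-domain sequence. Clusters outside 100-1000 RFU were excluded.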
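Further: ATP exposure 15 min at 22 °C before imaging.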

Row | Sequence | switch fluorescence ratio
1 | ACGGAGAGGC | 1.14 ± 0.22
2 | ACGGAGGATT | 1.04 ± 0.04
3 | ACGGAGGTGG | 0.992 ± 0.033
4 | ACGGATATTA | 1.01 ± 0.0031
5 | ACGGATGGCT | 0.984 ± 0.023
6 | ACGGATTGTG | 0.971 ± 0.0099
7 | ACGGCCTAAA | 0.98 ± 0.043
8 | ACGGCGCTGG | 1.02 ± 0.017
9 | ACGGCGTCGC | 1.02 ± 0.026
10 | ACGGCTAAGG | 1.06 ± 0.029
11 | ACGGCTGGAA | 0.969 ± 0.015
12 | ACGGCTGTCA | 0.999 ± 0.025
13 | ACGGCTGTTC | 1.01 ± 0.027
14 | ACGGGAAGGG | 1.05 ± 0.03
15 | ACGGGAGACC | 1.02 ± 0.018
16 | ACGGGATCAT | 1.07 ± 0.054
17 | ACGGGCAAGC | 1.72 ± 0.23
18 | ACGGGCGGGC | 1.29 ± 0.032
19 | ACGGGCTAAC | 1.09 ± 0.14
20 | ACGGGCTTTA | 1.03 ± 0.026
21 | ACGGGCTTTT | 1.01 ± 0.012
22 | ACGGGGAGGC | 1.07 ± 0.028
23 | ACGGGGAGTC | 1.039 ± 0.0052
24 | ACGGGGATTG | 1.02 ± 0.042
25 | ACGGGGCATC | 1.07 ± 0.013

Row | Sequence | switch fluorescence ratio
26 | ACGGGGCCGG | 1.06 ± 0.032
27 | ACGGGGCTAA | 1.12 ± 0.15
28 | ACGGGGGCGT | 1.05 ± 0.068
29 | ACGGGGGTAA | 1.18 ± 0.3
30 | ACGGGGGTG | 1.04 ± 0.074
31 | ACGGGTGACC | 1.03 ± 0.032
32 | ACGGGTGTCC | 0.995 ± 0.066
33 | ACGGGTTGTG | 0.96 ± 0.037
34 | ACGGGTTGTT | 1.02 ± 0.021
35 | ACGGGTTTTT | 0.999 ± 0.015
36 | ACGGTACTGT | 1.4 ± 0.045
37 | ACGGTATAGT | 1.1 ± 0.017
38 | ACGGTATTTT | 1.09 ± 0.052
39 | ACGGTCATAT | 1.08 ± 0.027
40 | ACGGTCTGGA | 1 ± 0.041
41 | ACGGTGATAT | 1.03 ± 0.028
42 | ACGGTGCTTG | 0.99 ± 0.015
43 | ACGGTGGACT | 1 ± 0.035
44 | ACGGTTAGGG | 1.05 ± 0.043
45 | ACGGTTTAAT | 1.04 ± 0.029
46 | ACGGTTTATG | 1.01 ± 0.058
47 | ACGTAACGCT | 1.3 ± 0.052
48 | ACGTAATGG | 1.57 ± 0.059
49 | ACGTAGCATG | 2.46 ± 0.45
50 | ACGTAGCTTT | 1.37 ± 0.36

Row | Sequence | switch fluorescence ratio
51 | ACGTAGGGGT | 1.21 ± 0.27
52 | ACGTAGGGTT | 1.08 ± 0.012
53 | ACGTAGTAAC | 1.03 ± 0.022
54 | ACGTCAAGGT | 1.0871 ± 0.00061
55 | ACGTCAGGGT | 1.0361 ± 0.00046
56 | ACGTCTACTC | 1.37 ± 0.1
57 | ACGTGACACC | 1.35 ± 0.063
58 | ACGTGCTTTT | 0.999 ± 0.018
59 | ACGTGGAGGA | 1.054 ± 0.0031
60 | ACGTGGGGGG | 1.04 ± 0.082
61 | ACGTGGTGTT | 1.003 ± 0.0035
62 | ACGTGTAGGC | 1.01 ± 0.04
63 | ACGTTAAAAT | 1.05 ± 0.021
64 | ACGTTACTAC | 1.52 ± 0.03
65 | ACGTTATTGG | 1.14 ± 0.02
66 | ACGTTGAAGT | 1.01 ± 0.019
67 | ACGTTGAATG | 1.01 ± 0.011
68 | ACGTTGGATT | 1.01 ± 0.014
69 | ACGTTGGGCA | 0.99 ± 0.014
70 | ACGTTGGTGC | 1.06 ± 0.029
71 | ACGTTTAACT | 1.25 ± 0.015
72 | ACGTTTTACA | 1.183 ± 0.0076
73 | ACGTTTTTGC | 1.02 ± 0.044
74 | ACTAAAAATT | 1.05 ± 0.04
75 | ACTAAACTTG | 1.014 ± 0.0022

Row | Sequence | switch fluorescence ratio
76 | ACTAAATAAA | 1.14 ± 0.23
77 | ACTAAGAATT | 1.02 ± 0.013
78 | ACTAATAGTC | 1.02 ± 0.038
79 | ACTAATGTTT | 0.994 ± 0.036
80 | ACTAATTAGC | 1.01 ± 0.031
81 | ACTACACTTT | 1.27 ± 0.018
82 | ACTACATTGG | 1.033 ± 0.0065
83 | ACTACCCCAA | 1.94 ± 0.14
84 | ACTACCCTCG | 1.18 ± 0.065
85 | ACTACGTACA | 1.68 ± 0.024
86 | ACTAGAGGCA | 1 ± 0.024
87 | ACTAGAGGTT | 1.06 ± 0.039
88 | ACTAGATTCT | 0.979 ± 0.013
89 | ACTAGCTACT | 1.138 ± 0.0094
90 | ACTAGCTGTA | 0.982 ± 0.034
91 | ACTAGGATTC | 0.986 ± 0.0028
92 | ACTAGGTGTG | 1.04 ± 0.013
93 | ACTATGATCA | 1.02 ± 0.014
94 | ACTATTAAT | 1.024 ± 0.0063
95 | ACTATTGCCA | 1.04 ± 0.017
96 | ACTATTGGGT | 0.988 ± 0.015
97 | ACTATTTGCG | 0.991 ± 0.042
98 | ACTATTTTTT | 1 ± 0.029
99 | ACTCAAAACG | 1.11 ± 0.09
100 | ACTCAAGGCT | 1.07 ± 0.049
